Measurements published in the supplement of paper PMC9112550, “Optimization of the antimicrobial peptide Bac7 by deep mutational scanning” (BMC Biology, 2022).

test system: Escherichia coli TOP10; assay: shrunken log2 fold change of peptide-encoding DNA abundance (4.5 h post-induction vs induction); higher = less antimicrobial activity (less host growth inhibition); conditions: time post-induction: 4.5 h; library: site-saturation at positions 5, 18, 19, 20
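Note: peptides expressed intracellularly from a pBAD plasmid library in pooled LB shake-flask culture, induced with 0.3% L-arabinose, DNA abundance read by NGS, three biological replicates, DESeq2 with apeglm shrinkage.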

Sequence | shrunken log2 fold change
RRIRSRPPRLPRPRPRPQFKPRP | -0.239
RRIRSRPPRLPRPRPRPQITPRP | -0.457
RRIRSRPPRLPRPRPRPQMGPRP | -0.046
RRIRSRPPRLPRPRPRPQMQPRP | 0.00783
RRIRSRPPRLPRPRPRPQRCPRP | -0.0342
RRIRSRPPRLPRPRPRPQVRPRP | 0.0563
RRIRSRPPRLPRPRPRPQVYPRP | -0.276
RRIRSRPPRLPRPRPRPRAGPRP | 1.46
RRIRSRPPRLPRPRPRPRAKPRP | 0.244
RRIRSRPPRLPRPRPRPRAWPRP | 0.0718
RRIRSRPPRLPRPRPRPRCFPRP | 0.165
RRIRSRPPRLPRPRPRPRDLPRP | 0.254
RRIRSRPPRLPRPRPRPRDMPRP | 0.446
RRIRSRPPRLPRPRPRPRDSPRP | -0.158
RRIRSRPPRLPRPRPRPRDVPRP | -0.0918
RRIRSRPPRLPRPRPRPRFKPRP | 0.0925
RRIRSRPPRLPRPRPRPRFQPRP | 0.233
RRIRSRPPRLPRPRPRPRFTPRP | -0.115
RRIRSRPPRLPRPRPRPRGIPRP | -0.33
RRIRSRPPRLPRPRPRPRHCPRP | 0.101
RRIRSRPPRLPRPRPRPRKQPRP | 0.248
RRIRSRPPRLPRPRPRPRLAPRP | 0.45
RRIRSRPPRLPRPRPRPRQSPRP | 0.113
RRIRSRPPRLPRPRPRPRRNPRP | 0.128
RRIRSRPPRLPRPRPRPRTKPRP | 0.407

Sequence | shrunken log2 fold change
RRIRSRPPRLPRPRPRPRTTPRP | 0.318
RRIRSRPPRLPRPRPRPRTWPRP | 0.0747
RRIRSRPPRLPRPRPRPRVRPRP | 0.217
RRIRSRPPRLPRPRPRPRVSPRP | -0.0241
RRIRSRPPRLPRPRPRPRWTPRP | 0.0635
RRIRSRPPRLPRPRPRPRWYPRP | -0.402
RRIRSRPPRLPRPRPRPRYEPRP | -0.12
RRIRSRPPRLPRPRPRPRYKPRP | -0.154
RRIRSRPPRLPRPRPRPSAMPRP | 0.292
RRIRSRPPRLPRPRPRPSARPRP | 0.299
RRIRSRPPRLPRPRPRPSASPRP | 0.0953
RRIRSRPPRLPRPRPRPSATPRP | 0.168
RRIRSRPPRLPRPRPRPSCGPRP | -0.0515
RRIRSRPPRLPRPRPRPSHAPRP | -0.449
RRIRSRPPRLPRPRPRPSHVPRP | -0.3
RRIRSRPPRLPRPRPRPSIGPRP | 0.347
RRIRSRPPRLPRPRPRPSKYPRP | -0.345
RRIRSRPPRLPRPRPRPSLCPRP | -0.0295
RRIRSRPPRLPRPRPRPSMPPRP | -0.706
RRIRSRPPRLPRPRPRPSMYPRP | -0.286
RRIRSRPPRLPRPRPRPSNEPRP | -0.476
RRIRSRPPRLPRPRPRPSNSPRP | -0.145
RRIRSRPPRLPRPRPRPSNVPRP | -0.47
RRIRSRPPRLPRPRPRPSNYPRP | -0.869
RRIRSRPPRLPRPRPRPSPCPRP | -0.04

Sequence | shrunken log2 fold change
RRIRSRPPRLPRPRPRPSPEPRP | 0.0709
RRIRSRPPRLPRPRPRPSPHPRP | -0.194
RRIRSRPPRLPRPRPRPSQMPRP | -0.161
RRIRSRPPRLPRPRPRPSRYPRP | -0.148
RRIRSRPPRLPRPRPRPSSCPRP | -0.271
RRIRSRPPRLPRPRPRPSSFPRP | -0.356
RRIRSRPPRLPRPRPRPSSYPRP | -0.344
RRIRSRPPRLPRPRPRPSTGPRP | -0.417
RRIRSRPPRLPRPRPRPSTVPRP | -0.353
RRIRSRPPRLPRPRPRPSWCPRP | -0.132
RRIRSRPPRLPRPRPRPSWLPRP | -0.101
RRIRSRPPRLPRPRPRPSYRPRP | -0.131
RRIRSRPPRLPRPRPRPTAVPRP | 0.466
RRIRSRPPRLPRPRPRPTCDPRP | 0.109
RRIRSRPPRLPRPRPRPTCHPRP | 0.024
RRIRSRPPRLPRPRPRPTCNPRP | 0.0589
RRIRSRPPRLPRPRPRPTCWPRP | 1.09
RRIRSRPPRLPRPRPRPTFAPRP | 0.232
RRIRSRPPRLPRPRPRPTFPPRP | 0.0566
RRIRSRPPRLPRPRPRPTFSPRP | 0.019
RRIRSRPPRLPRPRPRPTFVPRP | -0.15
RRIRSRPPRLPRPRPRPTGFPRP | -0.0473
RRIRSRPPRLPRPRPRPTGMPRP | 0.0395
RRIRSRPPRLPRPRPRPTGQPRP | 0.31
RRIRSRPPRLPRPRPRPTHFPRP | -0.0655

Sequence | shrunken log2 fold change
RRIRSRPPRLPRPRPRPTHIPRP | -0.165
RRIRSRPPRLPRPRPRPTILPRP | -0.413
RRIRSRPPRLPRPRPRPTKCPRP | -0.258
RRIRSRPPRLPRPRPRPTKFPRP | 0.0549
RRIRSRPPRLPRPRPRPTMAPRP | 0.173
RRIRSRPPRLPRPRPRPTMCPRP | -0.0421
RRIRSRPPRLPRPRPRPTQDPRP | 0.445
RRIRSRPPRLPRPRPRPTQHPRP | 0.376
RRIRSRPPRLPRPRPRPTQMPRP | 0.502
RRIRSRPPRLPRPRPRPTQNPRP | 0.375
RRIRSRPPRLPRPRPRPTRCPRP | 0.264
RRIRSRPPRLPRPRPRPTRKPRP | 0.138
RRIRSRPPRLPRPRPRPTRNPRP | 0.29
RRIRSRPPRLPRPRPRPTSEPRP | 0.292
RRIRSRPPRLPRPRPRPTSLPRP | 0.074
RRIRSRPPRLPRPRPRPTSTPRP | -0.236
RRIRSRPPRLPRPRPRPTSYPRP | -0.0485
RRIRSRPPRLPRPRPRPTVLPRP | 0.0356
RRIRSRPPRLPRPRPRPTWKPRP | 0.286
RRIRSRPPRLPRPRPRPTYAPRP | 0.0244
RRIRSRPPRLPRPRPRPTYHPRP | -0.492
RRIRSRPPRLPRPRPRPVACPRP | 0.271
RRIRSRPPRLPRPRPRPVCPPRP | 0.0554
RRIRSRPPRLPRPRPRPVCSPRP | 0.0822
RRIRSRPPRLPRPRPRPVCVPRP | 0.0943

Sequence | shrunken log2 fold change
RRIRSRPPRLPRPRPRPVDDPRP | -0.14
RRIRSRPPRLPRPRPRPVDFPRP | -0.0272
RRIRSRPPRLPRPRPRPVDSPRP | -0.0776
RRIRSRPPRLPRPRPRPVEIPRP | -0.0626
RRIRSRPPRLPRPRPRPVFDPRP | 0.106
RRIRSRPPRLPRPRPRPVFQPRP | -0.302
RRIRSRPPRLPRPRPRPVGSPRP | 0.304
RRIRSRPPRLPRPRPRPVHIPRP | -0.124
RRIRSRPPRLPRPRPRPVKSPRP | -0.127
RRIRSRPPRLPRPRPRPVLFPRP | -0.0544
RRIRSRPPRLPRPRPRPVLTPRP | -0.0627
RRIRSRPPRLPRPRPRPVLYPRP | 1.03
RRIRSRPPRLPRPRPRPVMFPRP | -0.118
RRIRSRPPRLPRPRPRPVMLPRP | -0.112
RRIRSRPPRLPRPRPRPVNEPRP | -0.0746
RRIRSRPPRLPRPRPRPVPEPRP | 0.563
RRIRSRPPRLPRPRPRPVPGPRP | 0.137
RRIRSRPPRLPRPRPRPVPLPRP | -0.0843
RRIRSRPPRLPRPRPRPVTIPRP | -0.373
RRIRSRPPRLPRPRPRPVWHPRP | 0.182
RRIRSRPPRLPRPRPRPVYPPRP | -0.11
RRIRSRPPRLPRPRPRPWANPRP | 0.0508
RRIRSRPPRLPRPRPRPWDNPRP | 0.0157
RRIRSRPPRLPRPRPRPWDRPRP | -0.0645
RRIRSRPPRLPRPRPRPWEAPRP | 0.019

Sequence | shrunken log2 fold change
RRIRSRPPRLPRPRPRPWEGPRP | -0.0466
RRIRSRPPRLPRPRPRPWFPPRP | -0.331
RRIRSRPPRLPRPRPRPWFYPRP | -0.172
RRIRSRPPRLPRPRPRPWHCPRP | -0.403
RRIRSRPPRLPRPRPRPWHPPRP | -0.125
RRIRSRPPRLPRPRPRPWHRPRP | -0.024
RRIRSRPPRLPRPRPRPWIAPRP | -0.181
RRIRSRPPRLPRPRPRPWIFPRP | -0.14
RRIRSRPPRLPRPRPRPWIPPRP | -0.119
RRIRSRPPRLPRPRPRPWIQPRP | -0.00956
RRIRSRPPRLPRPRPRPWKNPRP | -0.0508
RRIRSRPPRLPRPRPRPWKRPRP | -0.000813
RRIRSRPPRLPRPRPRPWLWPRP | 1.45
RRIRSRPPRLPRPRPRPWMKPRP | -0.00765
RRIRSRPPRLPRPRPRPWPCPRP | 0.134
RRIRSRPPRLPRPRPRPWPKPRP | 0.228
RRIRSRPPRLPRPRPRPWQDPRP | -0.136
RRIRSRPPRLPRPRPRPWQFPRP | 0.0527
RRIRSRPPRLPRPRPRPWQQPRP | 0.179
RRIRSRPPRLPRPRPRPWSFPRP | 0.0324
RRIRSRPPRLPRPRPRPWSWPRP | 0.405
RRIRSRPPRLPRPRPRPWVWPRP | 0.39
RRIRSRPPRLPRPRPRPWVYPRP | -0.14
RRIRSRPPRLPRPRPRPWWLPRP | 0.0261
RRIRSRPPRLPRPRPRPWYAPRP | -0.253
